From patent US20120316071A1 (published 2012)
Values belong to the binder of their own block, whether it stands above or below them.

Columns and labels:
[1] = biological target: T1, rHuman Erythropoietin R/Fc Chimera, CF (R&D Systems Cat#963-ER) (human, UniProt P19235 25-250); assay: MSD multispot ECL, antigen spotted, Fab 2.3 nM; blank spot 234
T1 construct: Bought reagent; also called EPO R/Fc; Epo R
T1 sequence (looked up): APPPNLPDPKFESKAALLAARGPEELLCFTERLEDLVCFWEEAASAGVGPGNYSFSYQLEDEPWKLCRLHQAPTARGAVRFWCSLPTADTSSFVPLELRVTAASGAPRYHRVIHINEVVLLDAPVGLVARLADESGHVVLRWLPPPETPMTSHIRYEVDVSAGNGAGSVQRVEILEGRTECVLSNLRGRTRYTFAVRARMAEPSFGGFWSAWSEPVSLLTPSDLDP

[2] = biological target: T2, rHuman CD44/Fc Chimera, CF (R&D Systems Cat#3660-CD) (human, UniProt P16070 21-220); assay: ECL Multispot (MSD), antigen spotted; Fab 500 (µM); blank 439
T2 construct: Bought recombinant protein; Fc part of the bought chimera not given

[3] = biological target: T3, Recombinant Human DLL4 (R&D Systems Cat#1506-D4/CF) (human, UniProt Q9NR61 27-529); assay: as above
T3 construct: Bought recombinant protein; also called delta-like protein 4; rHuman DLL4

[4] = biological target: T4, rHuman EGF R/Fc Chimera, CF (R&D Systems Cat#344-ER) (human, UniProt P00533 25-645); assay: as above
T4 construct: Bought recombinant protein; Fc part of the bought chimera not given

[5] = biological target: T5, rHuman Erythropoietin R/Fc Chimera, CF (R&D Systems Cat#963-ER) (human, UniProt P19235 25-250); assay: as above
T5 construct: Bought recombinant protein; also called EPO R; EPO R/Fc; Fc part of the bought chimera not given
T5 sequence (looked up): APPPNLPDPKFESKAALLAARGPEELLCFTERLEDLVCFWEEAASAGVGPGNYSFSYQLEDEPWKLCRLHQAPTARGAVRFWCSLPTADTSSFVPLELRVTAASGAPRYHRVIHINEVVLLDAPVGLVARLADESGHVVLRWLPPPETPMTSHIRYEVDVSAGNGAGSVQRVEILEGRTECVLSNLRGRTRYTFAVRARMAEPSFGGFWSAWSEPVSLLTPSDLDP

[6] = biological target: T6, rHuman P-Cadherin/Fc Chimera, CF (R&D Systems Cat#861-PC) (human, UniProt P22223 108-654); assay: as above
T6 construct: Bought recombinant protein; Fc part of the bought chimera not given

[7] = biological target: T7, rHuman ErbB2/Fc Chimera, CF (R&D Systems Cat#1129-ER) (human, UniProt P04626 23-652); assay: as above
T7 construct: Bought recombinant protein; Fc part of the bought chimera not given

[8] = biological target: T8, rHuman HGF R/c-MET/Fc Chimera, CF (R&D Systems Cat#358-MT/CF) (human, UniProt P08581 25-932); assay: as above
T8 construct: Bought recombinant protein; also called HGF R/Fc; Fc part of the bought chimera not given

[9] = biological target: T9, rHuman IGF-1 sR, CF (R&D Systems Cat#391-GR) (human, UniProt P08069 31-932); assay: as above
T9 construct: Bought recombinant soluble receptor; also called insulin-like growth factor-1 soluble receptor

[10] = biological target: T10, rHuman Notch-1/Fc Chimera, CF (R&D Systems Cat#3647-TK) (human, UniProt P46531 19-526); assay: as above
T10 construct: Bought recombinant protein; Fc part of the bought chimera not given

[11] = biological target: T11, rHuman CD44/Fc Chimera, CF (R&D Systems Cat#3660-CD) (human, UniProt P16070 21-220); assay: MSD Multispot ECL, antigen spotted on plate, Fab 2.0 nM; blank spot 316
T11 construct: Bought reagent; Fc part of the bought chimera not given

[12] = biological target: T12, rHuman ErbB2/Fc Chimera, CF (R&D Systems Cat#1129-ER) (human, UniProt P04626 23-652); assay: as above
T12 construct: Bought reagent; also called human epidermal growth factor 2 receptor; Fc part of the bought chimera not given

[13] = biological target: T13, rHuman HGF R/c-MET/Fc Chimera, CF (R&D Systems Cat#358-MT/CF) (human, UniProt P08581 25-932); assay: as above
T13 construct: Bought reagent; also called HGF R/Fc; hepatocyte growth factor receptor; Fc part of the bought chimera not given

[14] = biological target: T14, rHuman EGF R/Fc Chimera, CF (R&D Systems Cat#344-ER) (human, UniProt P00533 25-645); assay: as above
T14 construct: Bought reagent; also called epidermal growth factor receptor; Fc part of the bought chimera not given

[15] = biological target: T15, Recombinant Human DLL4 (R&D Systems Cat#1506-D4/CF) (human, UniProt Q9NR61 27-529); assay: as above
T15 construct: Bought recombinant protein; also called rHuman DLL4; delta-like protein 4

[16] = biological target: T16, rHuman Notch-1/Fc Chimera, CF (R&D Systems Cat#3647-TK) (human, UniProt P46531 19-526); assay: as above
T16 construct: Bought reagent; Fc part of the bought chimera not given

[17] = biological target: T17, rHuman Erythropoietin R/Fc Chimera, CF (R&D Systems Cat#963-ER) (human, UniProt P19235 25-250); assay: as above
T17 construct: Bought reagent; also called EPO R/Fc; EPO R; Fc part of the bought chimera not given
T17 sequence (looked up): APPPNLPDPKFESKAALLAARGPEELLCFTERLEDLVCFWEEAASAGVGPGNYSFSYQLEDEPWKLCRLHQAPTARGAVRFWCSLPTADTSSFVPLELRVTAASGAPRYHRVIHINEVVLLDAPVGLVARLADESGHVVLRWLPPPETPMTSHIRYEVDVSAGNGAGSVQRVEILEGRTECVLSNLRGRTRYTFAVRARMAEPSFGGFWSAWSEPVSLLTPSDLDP

[18] = biological target: T18, rHuman IGF-1 sR, (IGF-1 sR), CF (R&D Systems Cat#391-GR) (human, UniProt P08069 31-932); assay: as above
T18 construct: Bought soluble receptor; also called insulin-like growth factor-1 soluble receptor

[19] = biological target: T19, Recombinant Human DLL4 (R&D Systems Cat#1506-D4/CF) (human, UniProt Q9NR61 27-524); assay: MSD Multispot ECL, antigen spotted on plate, Fab at 15 nM; blank spot 261
T19 construct: Bought recombinant protein; also called rHuman DLL4; delta-like protein 4

B1: Fab VH1-46_IGHD6-6*01_IGHJ1*01 & L6_IGKJ1*01 (Fab, V domains shown)
VH: QVQLVQSGAEVKKPGASVKVSCKASGYTFTSYYMHWVRQAPGQGLEWMGIINPSGGSTSYAQKFQGRVTMTRDTSTSTVYMELSSLRSEDTAVYYCAREEYSSSSAEYFQHWGQGTLVTVSS
VL: not shown
notes: Only variable domains are tied to the molecule; Tested as a Fab made in E. coli: heavy chain from Plasmid A (CH1 constant region, His6 and Flag tags), kappa light chain from Plasmid C (kappa CL); also called parent Hit Fab against DLL4; VH1-46_IGHD6-6*01_IGHJ1*01 & L6_IGKJ1*01 (parental)
ECL signal [1]: 429 ECL signal

B3: Fab VH1-8_IGHD2-2*01_IGHJ6*01 & L12_IGKJ1*01 (Fab, V domains shown)
VH: QVQLVQSGAEVKKPGASVKVSCKASGYTFTSYDINWVRQATGQGLEWMGWMNPNSGNTGYAQKFQGRVTMTRNTSISTAYMELSSLRSEDTAVYYCARGGYCSSTSCYADYYYYYGMDVWGQGTTVTVSS
VL: not shown
ECL signal [11]: 447
ECL signal [12]: 382
ECL signal [13]: 356
ECL signal [14]: 424
ECL signal [15]: 605
ECL signal [16]: 539
ECL signal [17]: 433
ECL signal [18]: 367

More lines, now with the values ahead:

ECL signal [2]: 874
ECL signal [3]: 28900
ECL signal [4]: 1480
ECL signal [5]: 1210
ECL signal [6]: 1010
ECL signal [7]: 1580
ECL signal [8]: 760
ECL signal [9]: 613
ECL signal [10]: 785
B2: Fab VH1-46_IGHD6-6*01_IGHJ1*01 S102A/S103P/S104F (APF) & L6_IGKJ1*01 (Fab, V domains shown)
VH: QVQLVQSGAEVKKPGASVKVSCKASGYTFTSYYMHWVRQAPGQGLEWMGIINPSGGSTSYAQKFQGRVTMTRDTSTSTVYMELSSLRSEDTAVYYCAREEYAPFSAEYFQHWGQGTLVTVSS
VL: not shown
notes: Tested as a Fab made in E. coli: VH cloned in Plasmid A (CH1 constant region, His6 and Flag tags), VL in Plasmid C (kappa constant region); also called H:APF & L:wt; APF triple mutant

ECL signal [19]: 690
B4: Fab VH6-1_IGHD3-3*01_IGHJ4*01 & V4-3_IGLJ4*01 (Fab, V domains shown)
VH: QVQLQQSGPGLVKPSQTLSLTCAISGDSVSSNSAAWNWIRQSPSRGLEWLGRTYYRSKWYNDYAVSVKSRITINPDTSKNQFSLQLNSVTPEDTAVYYCAREYYDFWSGYYTDYFDYWGQGTLVTVSS
VL: QPVLTQPTSLSASPGASARLTCTLRSGINLGSYRIFWYQQKPESPPRYLLSYYSDSSKHQGSGVPSRFSGSKDASSNAGILVISGLQSEDEADYYCMIWHSSASFVFGGGTQLIIL
notes: Tested as a purified germline Fab made in E. coli; The VH was cloned into plasmid A (CH1 constant region, His6 and Flag tags) and the lambda VL into plasmid E (lambda CL)
